The EC50 is the concentration needed to bring the measured effect to its halfway point. Broadly, the IC50 is the concentration needed to halve the response being measured.

The target in experiment [1] is T1, human IL-17RA on stable IL-17RA 293F cell lines (human) (UniProt Q96F46).
T1 sequence (looked up): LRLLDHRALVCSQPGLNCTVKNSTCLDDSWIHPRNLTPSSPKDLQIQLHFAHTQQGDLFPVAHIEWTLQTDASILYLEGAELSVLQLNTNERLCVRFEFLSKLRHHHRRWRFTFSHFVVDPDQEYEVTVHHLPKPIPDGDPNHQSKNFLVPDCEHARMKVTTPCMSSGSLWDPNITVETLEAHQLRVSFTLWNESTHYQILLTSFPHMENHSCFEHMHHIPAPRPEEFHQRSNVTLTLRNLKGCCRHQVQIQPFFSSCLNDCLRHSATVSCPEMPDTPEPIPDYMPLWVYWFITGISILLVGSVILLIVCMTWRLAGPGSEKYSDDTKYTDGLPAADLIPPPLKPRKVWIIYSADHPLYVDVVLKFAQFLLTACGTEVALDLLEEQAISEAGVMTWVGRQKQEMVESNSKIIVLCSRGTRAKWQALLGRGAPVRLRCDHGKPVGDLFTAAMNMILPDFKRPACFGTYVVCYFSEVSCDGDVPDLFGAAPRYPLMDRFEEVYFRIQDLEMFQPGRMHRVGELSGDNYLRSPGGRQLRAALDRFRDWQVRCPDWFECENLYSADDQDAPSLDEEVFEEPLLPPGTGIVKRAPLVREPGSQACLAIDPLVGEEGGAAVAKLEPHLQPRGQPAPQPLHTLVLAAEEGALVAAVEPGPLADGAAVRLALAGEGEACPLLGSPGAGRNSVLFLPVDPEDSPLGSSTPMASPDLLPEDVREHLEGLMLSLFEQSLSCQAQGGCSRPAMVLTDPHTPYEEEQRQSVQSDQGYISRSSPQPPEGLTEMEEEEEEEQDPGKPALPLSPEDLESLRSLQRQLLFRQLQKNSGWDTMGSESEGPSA
Nature of the experiment: FACS, 3 µg/mL IL-17A-mFc on stable IL-17RA 293F cells, anti-mouse IgG detection; control group (1% BSA, no IL-17A-mFc) gave 308.

For experiment [2], the target named is T2, recombinant human IL-17A-mFc protein (human, UniProt Q16552 24-155, Biotinylated before the blocking assays of Examples 9 and 12 (sites not given); disulfide-linked dimer through IL-17A and the Fc.).
T2 construct: also called recombinant fusion protein IL-17A-mFc
T2 sequence: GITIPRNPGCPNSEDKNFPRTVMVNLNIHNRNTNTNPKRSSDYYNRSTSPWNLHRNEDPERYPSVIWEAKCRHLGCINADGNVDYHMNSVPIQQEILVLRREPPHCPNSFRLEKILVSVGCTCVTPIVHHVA
The experiment in a line: ELISA, human IL-17A-mFc (0.5 µg/mL) coated, biotinylated anti-IgG4 detection. The method, then: (§1) The binding specificity of the chimeric antibodies to human IL-17A was determined by conventional ELISA. Namely, 0.5 μg/mL of human IL-17A-mFc was immobilized on a 96-well plate and incubated for 60-90 minutes at 37° C. The solution in wells was then discarded, and the wells were washed 3 times with washing buffer, and blocked for 60 minutes with PBS containing 2% BSA. The plate was washed 3 times with washing buffer, and added with diluted chimeric antibodies at different concentrations. The antibodies were incubated at 37° C. for 60 minutes. The plate was then washed 3 times with washing buffer, and added with 10000-fold diluted biotinylated anti-IgG4 antibody. The system was incubated at 37° C. for 1 hour, washed three times with washing buffer, added with HRP-Strep 10000-fold diluted with washing buffer, and incubated at room temperature for 1 hour. After 3 washes with washing buffer, 100 μL of TMB substrate was added for color development. The system was incubated at room temperature for 30 minutes, and the reaction was terminated with 100 μL of 2 M hydrochloric acid solution. The absorbance at 450 nm was measured by a plate reader.
Background: ELISA stands for enzyme-linked immunosorbent assay.

Experiment [3] deals with T2, recombinant human IL-17A-mFc protein. Nature of the experiment: competitive FACS: blocks binding of biotinylated human IL-17A-mFc (3 µg/mL) to IL-17RA on 293F cells. As for the experimental part:
(§2) The blocking of binding of IL-17A to IL-17RA on cells was detected by a competitive cell-based flow cytometry (FACS) assay. Briefly, chimeric antibody dilutions of different concentrations (3-fold diluted from 10 μg/mL) were mixed with the pre-biotinylated human IL-17A-mFC (3 μg/mL) obtained in Example 1, and incubated at room temperature for 30 minutes. […] After 3 washes with PBS, 5 μg/mL of anti-mouse IgG was added and the system was incubated at room temperature for 30 minutes.

Experiment [4] has the same target. Nature of the experiment: ELISA, human IL-17A-mFc coated (method of Example 8). As for the experimental part: as §1
The binding specificity of the humanized antibodies to human IL-17A was determined by conventional ELISA. The method and procedures are described in Example 8.

The target is the same in experiment [5]. The experiment in a line: competitive FACS: blocks binding of biotinylated human IL-17A-mFc to IL-17RA on 293F cells. As for the experimental part: as §2
The blocking of binding of IL-17A to IL-17RA on cells was detected by a competitive cell-based flow cytometry (FACS) assay. The method and procedures are described in Example 9.

“recombinant human IL-17A-mFc protein (from UniProt Q16552 24-155) (Fc fusion)” displayed an MFI (mean fluorescence intensity) in experiment [1] of 7700 MFI.

B1: chimeric antibody ch7 (antibody, V domains shown)
VH: QVQLKESGPGLVAPSQSLSITCTVSGFSLINYDIHWLRQPPGKGLEWLGVIWAGGRTHSDSALMSRLSISKDNSKSQVFLNVHSLRPEDTAIYYCAREGGDYYKYLDFWGQGTTLTVSS
VL: DVKMTQSPSSMYASLGERVTITCKASHDINSYLSWFQQKPGKSPKTLIYRANGLVDGVPSRFSGSGSGQDYSLTISSLEYEDMGVYYCLQYEMLPLTFGAGTKLELK
Regarding B1, in experiment [2], the EC50 was found to be 0.04 µg/mL. Also, the half-inhibitory concentration (IC50) in experiment [3] was 1.22 µg/mL.

B2: chimeric antibody ch1 (antibody, V domains shown)
VH: QIQLVQSGPELKKPGETVKISCKASGYIFTNYGMNWMKQAPGKGLKWMGWINDHTGEPTYADDFKGRFAFSLETSASTAYLQINNLKKEDTATYFCANYGFGYFDYWGQGTTLTVSS
VL: DVVMTQTPLSLPVSLGDQASISCRSSQSLVHSNGNSYLHWYLQKPGQSPKLLIYKVSNRFSGVPDRFSGSGSGTDFTLKISRVEAEDLGVYFCSQSTHVPYTFGGGTKLEIK
With B2, the concentration for a half-maximal effect (EC50) in experiment [2] came out at 0.00662 µg/mL. Besides, in experiment [3], the IC50 came to 4.46 µg/mL.

B3: chimeric antibody ch4 (antibody, V domains shown)
VH: QIQLVQSGPELKKPGETVKISCKASGYIFTNYGMNWMKQAPGKGLKWMGWINDHTGEPTYADDFKGRFAFSLETSASTAYLQINNLKKEDTATYFCANYGFGYFDYWGQGTTLTVSS
VL: DVLMTQTPLSLPVSLGDQASISCRSSQSIVHSNGNTYLDWYLQKPGQSPKLLIYKVSNRFSGVPDRFSGSGSGTSFTLKISRVEAEDLGVYYCFQGSHFPTFGGGTKLEIK
Turning to B3, in experiment [2], the 50% effective concentration (EC50) worked out at 0.0885 µg/mL.

B4: chimeric antibody ch2 (antibody, V domains shown)
VH: QIQLVQSGPELKKPGETVKISCKASGYIFTNYGMNWMKQAPGKGLKWMGWINDHTGEPTYADDFKGRFAFSLETSASTAYLQINNLKKEDTATYFCANYGFGYFDYWGQGTTLTVSS
VL: DVVVTQTPLSLPVSLGDQASISCRSGQSLVHSNGHTYFHWYLQKPGQSPKLLIYKVSNRFSGVPDRFSGSGSGTDFTLKISRVEAEDLGIYFCSQSTHVPYTFGGGTKLEIK
On to B4, for which the EC50 in experiment [2] was 0.00517 µg/mL. The IC50 in experiment [3] amounted to 3.15 µg/mL.

B5: humanized antibody hu59 (antibody, human IgG4 S228P, kappa, V domains shown)
VH: QVQLQESGPGLVKPSETLSLTCTVTGYSISSDYAWSWIRQPPGKGLEWIGFISYSGPTSYNPSLKSRVTISRDTSKNQFSLKLSSVTAADTAVYYCARGGDGDSFDYWGQGTLVTVSS
VL: DVVMTQSPLSLPVTLGQPASISCRSSQSIVHSNGNTYLDWYLQKPGKSPKLLIYKVSNRFSGVPDRFSGSGSGTDFTLKISRVEAEDLGVYYCFQGSHFPTFGQGTKLEIKR
For B5, in experiment [4], the 50% effective concentration (EC50) turned out to be 0.0061 µg/mL. In addition, in experiment [5], the concentration for half-maximal inhibition (IC50) amounted to 0.467 µg/mL.

B6: humanized antibody hu250 (antibody, human IgG4 S228P, kappa, V domains shown)
VH: QVQLQESGPGLVKPSETLSLTCTVSGYSITSDYAWSWIRQPPGKGLEWIGFISYSGPTSYNPSLKSRVTISRDTSKNQFFLQLKSVTAADTAVYYCARGGDGDSFDYWGQGTTVTVSS
VL: DVVMTQTPLSLSVTPGQPASISCKSSQSIVHSNGNTYLDWYLQKPGQSPKLLIYKVSNRFSGVPDRFSGSGSGTDFTLKISRVEAEDVGVYYCFQGSHFPTFGGGTKVEIKR
Take B6: the concentration giving a half-maximal response (EC50) in experiment [4] stood at 0.00635 µg/mL. For the same molecule, the concentration for half-maximal inhibition (IC50) in experiment [5] turned out to be 0.578 µg/mL.

B7: humanized antibody hu60 (antibody, human IgG4 S228P, kappa, V domains shown)
VH: QVQLQESGPGLVKPSETLSLTCTVTGYSISSDYAWSWIRQPPGKGLEWIGFISYSGPTSYNPSLKSRVTISRDTSKNQFSLKLSSVTAADTAVYYCARGGDGDSFDYWGQGTLVTVSS
VL: DVVMTQSPLSLPVTLGQPASISCRSSQSIVHSNGNTYLDWYLQKPGQSPKLLIYKVSNRFSGVPDRFSGSGSGTSFTLKISRVEAEDLGVYYCFQGSHFPTFGQGTKLEIKR
For the molecule B7, the 50% effective concentration (EC50) in experiment [4] worked out at 0.00578 µg/mL. Besides, the IC50 in experiment [5] is 0.483 µg/mL.

B8: chimeric antibody ch16 (antibody, V domains shown)
VH: DVQLQESGPGLVKPSQSLSLTCTVTGYSITSDYAWSWIRQFPGNKLEWMAFISYSGPTSYNPSLKSRVSITRDTSKNQFFLQLKSVTTEDTATYYCARGGDGDSFDYWGQGTTLTVSS
VL: DVLMTQTPLSLPVSLGDQASISCRSSQSIVHSNGNTYLDWYLQKPGQSPKLLIYKVSNRFSGVPDRFSGSGSGTSFTLKISRVEAEDLGVYYCFQGSHFPTFGGGTKLEIK
For the molecule B8, the EC50 in experiment [2] worked out at 0.0154 µg/mL. Also, the IC50 in experiment [3] was determined as 1.45 µg/mL.

B9: humanized antibody hu43 (antibody, human IgG4 S228P, kappa, V domains shown)
VH: QIQLVQSGAEVKKPGASVKISCKASGYIFTNYGMNWMRQAPGQGLEWMGWINDHTGEPTYADKFQGRVTFTLDTSASTAYMELSRLRSDDTAVYYCANYGFGYFDYWGQGTLVTVSS
VL: DVVMTQSPLSLPVTLGQPASISCRSSQSLVHSNGNSYLHWYLQKPGQSPQLLIYKVSNRFSGVPDRFSGSGSGTDFTLKISRVEAEDVGVYYCSQSTHVPYTFGQGTKLEIKR
In the case of B9, the EC50 in experiment [4] was 0.00864 µg/mL. In addition, the IC50 in experiment [5] is 0.781 µg/mL.

B10: humanized antibody hu44 (antibody, human IgG4 S228P, kappa, V domains shown)
VH: QIQLVQSGAEVKKPGASVKISCKASGYIFTNYGMNWMRQAPGQGLEWMGWINDHTGEPTYADKFQGRVTFTLDTSASTAYMELSRLRSDDTAVYYCANYGFGYFDYWGQGTLVTVSS
VL: DVVMTQSPLSLPVTLGQPASISCRSSQSLVHSNGNSYLHWYLQKPGQSPQLLIYKVSNRFSGVPDRFSGSGSGTDFTLKISRVEAEDVGVYFCSQSTHVPYTFGQGTKLEIKR
As for B10, the EC50 in experiment [4] came to 0.00676 µg/mL. Moreover, in experiment [5], the 50% inhibitory concentration (IC50) is 0.829 µg/mL.

B11: humanized antibody hu31 (antibody, human IgG4 S228P, kappa, V domains shown)
VH: QVQLVQSGAEVKKPGASVKVSCKASGYIFTNYGMNWMRQAPGQGLEWMGWINDHTGEPTYADKFQGRVTFTLDTSISTAYMELSRLRSDDTAVYYCANYGFGYFDYWGQGTLVTVSS
VL: DVVMTQSPLSLPVTLGQPASISCRSSQSLVHSNGNSYLHWYLQKPGQSPQLLIYKVSNRFSGVPDRFSGSGSGTDFTLKISRVEAEDVGVYYCSQSTHVPYTFGQGTKLEIKR
notes: Humanized from ch1
Regarding B11, the EC50 in experiment [4] stood at 0.00813 µg/mL. The IC50 in experiment [5] is 0.868 µg/mL.

(Values after patent publication US20230159632A1 (SHANGHAI JUNSHI BIOSCIENCES, published 2023).)
